Consider 7 molecules from article PMC3459908 (2012).

One may read the Kd as the free concentration of one partner at which half of the binding sites on the other are occupied at equilibrium, for simple one-to-one binding.

One test addresses BMP2 (Homo sapiens) (UniProt P12643). Briefly: SPR. As to conditions: cited from earlier work.
The target of test [1] is T1, BMP6 (Homo sapiens (Human),Homo sapiens …, UniProt P22004,P22004).
T1 chain 1: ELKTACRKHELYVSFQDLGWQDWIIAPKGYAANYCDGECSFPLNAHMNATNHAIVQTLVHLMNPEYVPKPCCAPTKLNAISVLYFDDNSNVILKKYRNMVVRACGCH
T1 chain 2: T1 chain 1
Briefly: SPR kinetic 1:1, BMP immobilised, full soluble RGM analyte. Background: Surface plasmon resonance follows binding to a sensor surface in real time, without labels.

Another test addresses T2, BMP9 (Homo sapiens (Human),Homo sapiens …, UniProt Q9UK05,Q9UK05).
T2 chain 1: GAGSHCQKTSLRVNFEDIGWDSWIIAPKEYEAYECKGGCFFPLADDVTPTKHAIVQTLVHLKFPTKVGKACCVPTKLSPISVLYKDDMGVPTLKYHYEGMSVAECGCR
T2 chain 2: T2 chain 1
The description is as above.

Test [2] addresses T3, BMP4 (Homo sapiens (Human),Homo sapiens …, UniProt P12644,P12644).
T3 chain 1: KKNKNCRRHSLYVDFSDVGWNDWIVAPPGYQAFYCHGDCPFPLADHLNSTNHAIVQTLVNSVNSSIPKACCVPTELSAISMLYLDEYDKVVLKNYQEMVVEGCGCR
T3 chain 2: T3 chain 1
The description is as above.

Test [3] concerns the target T4, BMP7 (Homo sapiens (Human),Homo sapiens …, UniProt P18075,P18075).
T4 chain 1: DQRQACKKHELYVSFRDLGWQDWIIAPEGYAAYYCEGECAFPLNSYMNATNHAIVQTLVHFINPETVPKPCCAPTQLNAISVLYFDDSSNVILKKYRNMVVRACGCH
T4 chain 2: T4 chain 1
The test is described as above.

The target in test [4] is T5, BMP2 (Homo sapiens (Human),Homo sapiens …, UniProt P12643,P12643).
T5 chain 1: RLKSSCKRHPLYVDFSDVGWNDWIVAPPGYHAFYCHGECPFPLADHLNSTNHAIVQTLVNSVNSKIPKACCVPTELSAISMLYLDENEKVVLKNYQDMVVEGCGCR
T5 chain 2: T5 chain 1
The description is as above.

The target in test [5] is T6, BMP5 (Homo sapiens (Human),Homo sapiens …, UniProt P22003,P22003).
T6 chain 1: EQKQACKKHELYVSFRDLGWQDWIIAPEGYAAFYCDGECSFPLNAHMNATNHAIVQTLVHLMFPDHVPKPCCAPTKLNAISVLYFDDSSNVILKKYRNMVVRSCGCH
T6 chain 2: T6 chain 1
The description is as above.

Test [6] has as its target T7, BMP6 (Homo sapiens, UniProt P22004).
T7 chain: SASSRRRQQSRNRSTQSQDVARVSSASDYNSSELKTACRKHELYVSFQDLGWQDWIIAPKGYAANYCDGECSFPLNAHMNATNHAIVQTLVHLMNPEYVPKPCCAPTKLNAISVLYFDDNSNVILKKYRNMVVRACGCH
As to the kind of experiment: SPR.

Test [7] has as its target T8, BMP7 (Homo sapiens, UniProt P18075).
T8 chain: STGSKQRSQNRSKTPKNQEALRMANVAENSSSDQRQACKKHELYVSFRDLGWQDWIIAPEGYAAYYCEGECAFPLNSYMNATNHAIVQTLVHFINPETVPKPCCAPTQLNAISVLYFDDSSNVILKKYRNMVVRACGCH
As to the kind of experiment: SPR.

The target in test [8] is T9, BMP4 (Homo sapiens, UniProt P12644).
T9 chain: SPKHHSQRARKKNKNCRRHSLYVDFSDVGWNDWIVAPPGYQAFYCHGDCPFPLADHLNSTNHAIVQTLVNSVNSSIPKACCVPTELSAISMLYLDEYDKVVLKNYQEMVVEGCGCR
As to the kind of experiment: SPR.

Test [9] addresses T10, BMP2 (Homo sapiens, UniProt P12643).
T10 chain: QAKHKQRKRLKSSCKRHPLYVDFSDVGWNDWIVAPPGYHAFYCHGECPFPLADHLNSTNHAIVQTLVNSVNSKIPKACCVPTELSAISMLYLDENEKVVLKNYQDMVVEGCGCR
As to the kind of experiment: SPR.

For test [10], the target named is T11, BMP5 (Homo sapiens, UniProt P22003).
T11 chain: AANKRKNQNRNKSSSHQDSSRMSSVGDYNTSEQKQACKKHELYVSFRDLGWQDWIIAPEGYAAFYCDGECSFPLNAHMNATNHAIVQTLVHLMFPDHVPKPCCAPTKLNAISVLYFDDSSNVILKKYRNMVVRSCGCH
Briefly: SPR.

HJV (from UniProt Q6ZVN8): in the test with BMP2 (Homo sapiens), the Kd was 140 nM.

B1: RGMC (protein)
chain: QCKILRCNAEYVSSTLSLRGGGSSGALRGGGGGGRGGGVGSGGLCRALRSYALCTRRTARTCRGDLAFHSAVHGIEDLMIQHNCSRQGPTAPPPP
Take B1: the Kd is 8.1 nM in the test with BMP6 [1]; more than 200 nM with BMP9; 4.5 nM with BMP4 [2]; 20 nM with BMP7 [3]; 9.4 nM with BMP2 [4]; 17 nM with BMP5 [5].

B2: RGMB (protein)
chain: QCRIQKCTTDFVSLTSHLNSAVDGFDSEFCKALRAYAGCTQRTSKACRGNLVYHSAVLGISDLMSQRNCSKDGPTSSTNP
As for B2, the Kd was more than 30 nM in the test with BMP9; 2.6 nM with BMP4 [2]; 166 nM with BMP7 [3]; 5.5 nM with BMP2 [4]; 33 nM with BMP5 [5].

B3: RGMA (protein)
chain: PCKILKCNSEFWSATSGSHAPASDDTPEFCAALRSYALCTRRTARTCRGDLAYHSAVHGIEDLMSQHNCSKDGPTSQPRL
As to B3, the Kd in the test with BMP9 was more than 100 nM.

B4: RGMB (protein)
chain: GDCQQPAQCRIQKCTTDFVSLTSHLNSAVDGFDSEFCKALRAYAGCTQRTSKACRGNLVYHSAVLGISDLMSQRNCSKDGPTSSTNPEVTHDPCNYHSHAGAREHRRGDQNPPSYLFCGLFGDPHLRTFKDNFQTCKVEGAWPLIDNNYLSVQVTNVPVVPGSSATATNKITIIFKAHHECTDQKVYQAVTDDLPAAFVDGTTSGGDSDAKSLRIVERESGHYVEMHARYIGTTVFVRQVGRYLTLAIRMPEDLAMSYEESQDLQLCVNGCPLSERIDDGQGQVSAILGHSLPRTSLVQAWPGYTLETANTQCHEKMPVKDIYFQSCVFDLLTTGDANFTAAAHSALEDVEALHPRKERWHIFPSSGN
On to B4, for which the Kd with BMP6 [6] was 28 nM.

B5: RGMA (protein)
chain: PHLRTFTDRFQTCKVQGAWPLIDNNYLNVQVTNTPVLPGSAATATSKLTIIFKNFQECVDQKVYQAEMDELPAAFVDGSKNGGDKHGANSLKITEKVSGQHVEIQAKYIGTTIVVRQVGRYLTFAVRMPEEVVNAVEDWDSQGLYLCLRGCPLNQQIDFQAFHTNAEGTGARRLAAASPAPTAPETFPYETAVAKCKEKLPVEDLYYQACVFDLLTTGDVNFTLAAYYALEDVKMLHSNKDKLHLYERTRDLPGRA
Regarding B5, the Kd was 63 nM with BMP7 [7]; 55 nM in the test with BMP6 [6]; 14 nM with BMP4 [8]; 22 nM in the test with BMP2 [9]; 83 nM with BMP5 [10].

B6: HJV (protein)
chain: QCKILRCNAEYVSSTLSLRGGGSSGALRGGGGGGRGGGVGSGGLCRALRSYALCTRRTARTCRGDLAFHSAVHGIEDLMIQHNCSRQGPTAPPPPRGPALPGAGSGLPAPDPCDYEGRFSRLHGRPPGFLHCASFGDPHVRSFHHHFHTCRVQGAWPLLDNDFLFVQATSSPMALGANATATRKLTIIFKNMQECIDQKVYQAEVDNLPVAFEDGSINGGDRPGGSSLSIQTANPGNHVEIQAAYIGTTIIIRQTAGQLSFSIKVAEDVAMAFSAEQDLQLCVGGCPPSQRLSRSERNRRGAITIDTARRLCKEGLPVEDAYFHSCVFDVLISGDPNFTVAAQAALEDARAFLPDLEKLHLFPSD
On to B6, for which the Kd worked out at 20 nM in the test with BMP7 [7]; 8.1 nM in the test with BMP6 [6]; 4.5 nM in the test with BMP4 [8]; 9.4 nM with BMP2 [9]; 17 nM with BMP5 [10].
